Laboratory results reported in US20150307565A1 (WISCONSIN ALUMNI RESEARCH FOUNDATION, published 2015).

How the values were obtained:
[1] = target: the molecule itself; assay: X-ray crystallography (self-association in the crystal)
Method: Well ordered crystals were formed in solutions containing 15 mg/ml PhyB, 1.2 M MgSO₄, 4% glycerol, 1% poly(ethylene glycol) 3350, and 100 mM BisTris(HCl) (pH 5.5). Crystals were exchanged into 100 mM MgSO₄, 25% poly(ethylene glycol) 3350, 15% poly(ethylene glycol) 550 monomethyl ether, and 100 mM BisTris (pH 5.5), and flash cooled in liquid nitrogen. Final datasets were collected at the Life Sciences Collaborative Access Team at the Advanced Photon Source (Argonne, Ill.), and indexed, integrated, and scaled using HKL2000 (Otwinowski et al., Method Enzymol. 276-307-326 (1997)). Initial phases were calculated by PHASER (McCoy et al., J. Appl. Crystallogr 40:658-674 (2007)) using the PAS-GAF region of Syn-Cph1 as the search model (PDB 2VEA, (Essen et al., Proc. Natl. Acad. Sci. USA 105:14709-14714 (2008)). Manual model-building was conducted with COOT (Emlsey et al., Acta Crystallogr D Biol. Crystallogr 60:2126-2132 (2004)) and refined with PHENIX (McCoy et al., J. Appl. Crystallogr 40:658-674 (2007)) without real-space refinement and invoking non-crystallographic symmetry in torsion angle mode, and validated with MOLPROBITY (Chen et al., Acta Crystallogr D Biol. Crystallogr 66:12-21 (2010)). Superpositions were arranged with LSQKAB (Kabsch, Acta Crystallogr A 32:922-923 (1976)).

[2] = target: the molecule itself; assay: equilibrium sedimentation (Pr) and size exclusion chromatography (Pr and Pfr); self-association
Method: FIG. 8A: Apparent size of PhyB(PSM) was measured by size exclusion chromatography (SEC) as either Pr (red circle) or following saturating red light irradiation (mostly Pfr) (purple circle). The column was calibrated with Bio-Rad size-exclusion protein standards and blue dextran (open circles). The partition coefficient, Kₐᵥ, was calculated using the equation, Kₐᵥ=(Vₑ−V₀)/(Vₜ−V₀), where Vₑ, V₀, and Vₜ are the elution, void and total volumes, respectively. V₀ and Vₜ were measured using blue dextran and vitamin B12. FIG. 8B: Equilibrium sedimentation was used to measure the mass of PhyB(PSM) as Pr using two concentrations and three rotor speeds. Lines represent global fits of the data. The calculated ratio of the measured molecular weight to that calculated from the sequence is shown.
Equilibrium sedimentation was conducted at 20° C. in darkness with Beckmann XL-A analytical ultracentrifuge and PhyB dissolved as Pr in SAB. SEC was conducted at 20° C. by FPLC (0.2 ml/min) with a 0.5×20 cm analytical grade Superdex 200 column (GE) equilibrated with SAB and 50 μl of either Pr samples or samples continuously irradiated with red light (mostly Pfr).

B1: Arabidopsis PhyB(90-624) biliprotein bearing a C-terminal SLHHHHHH tag, assembled with phytochromobilin (PΦB) (receptor, Arabidopsis thaliana)
chain: TTYGSSVPEQQITAYLSRIQRGGYIQPFGCMIAVDESSFRIIGYSENAREMLGIMPQSVPTLEKPEILAMGTDVRSLFTSSSSILLERAFVAREITLLNPVWIHSKNTGKPFYAILHRIDVGVVIDLEPARTEDPALSIAGAVQSQKLAVRAISQLQALPGGDIKLLCDTVVESVRDLTGYDRVMVYKFHEDEHGEVVAESKRDDLEPYIGLHYPATDIPQASRFLFKQNRVRMIVDCNATPVLVVQDDRLTQSMCLVGSTLRAPHGCHSQYMANMGSIASLAMAVIINGNEDDGSNVASGRSSMRLWGLVVCHHTSSRCIPFPLRYACEFLMQAFGLQLNMELQLALQMSEKRVLRTQTLLCDMLLRDSPAGIVTQSPSIMDLVKCDGAAFLYHGKYYPLGVAPSEVQIKDVVEWLLANHADSTGLSTDSLGDAGYPGAAALGDAVCGMAVAYITKRDFLFWFRSHTAKEIKWGGAKHHPEDKDDGQRMHPRSSFQAFLEVVKSRSQPWETAEMDAIHSLQLILRDSFKESEAASLHHHHHH
modifications: phytochromobilin (PΦB) attached by a thioether linkage to Cys-357
notes: Crystallized as Pr; Two subunits (A and B) form the crystal dimer; also called PDB 4OUR
binding result [1]: binds

B2: Arabidopsis PhyB PSM (residues 1-624) assembled with PΦB (receptor, Arabidopsis thaliana, UniProt P14713 1-624, looked up)
chain: MVSGVGGSGGGRGGGRGGEEEPSSSHTPNNRRGGEQAQSSGTKSLRPRSNTESMSKAIQQYTVDARLHAVFEQSGESGKSFDYSQSLKTTTYGSSVPEQQITAYLSRIQRGGYIQPFGCMIAVDESSFRIIGYSENAREMLGIMPQSVPTLEKPEILAMGTDVRSLFTSSSSILLERAFVAREITLLNPVWIHSKNTGKPFYAILHRIDVGVVIDLEPARTEDPALSIAGAVQSQKLAVRAISQLQALPGGDIKLLCDTVVESVRDLTGYDRVMVYKFHEDEHGEVVAESKRDDLEPYIGLHYPATDIPQASRFLFKQNRVRMIVDCNATPVLVVQDDRLTQSMCLVGSTLRAPHGCHSQYMANMGSIASLAMAVIINGNEDDGSNVASGRSSMRLWGLVVCHHTSSRCIPFPLRYACEFLMQAFGLQLNMELQLALQMSEKRVLRTQTLLCDMLLRDSPAGIVTQSPSIMDLVKCDGAAFLYHGKYYPLGVAPSEVQIKDVVEWLLANHADSTGLSTDSLGDAGYPGAAALGDAVCGMAVAYITKRDFLFWFRSHTAKEIKWGGAKHHPEDKDDGQRMHPRSSFQAFLEVVKSRSQPWETAEMDAIHSLQLILRDSFKESEAA
modifications: phytochromobilin (PΦB) attached by a thioether linkage to Cys-357
notes: Tested for self-association in solution as Pr (equilibrium sedimentation, SEC) and as mostly Pfr after red light (SEC); also called full PSM fragment; full-length PSM; not shown: 6His tag: the PSM constructs carried N- or C-terminal 6His tags (the N-terminal one is TEV-cleavable and leaves Gly-His)
binding result [2]: no binding
